Columns and labels:
[1] = target: biotinylated maltose-binding protein (MBP) [MBP: P0AEX9]; assay: SPR
[2] = target: CD44 trans-membrane domain (TMD) fused to maltose-binding protein [MBP: P0AEX9]; assay: single-molecule force spectroscopy

## monobody YS1(E47A) (designed binder)
[1]
  Kd: 101 nM
  koff: 0.0387 s⁻¹
  kon: 360000 M⁻¹ s⁻¹
[2]
  decrease of rupture force against YS1: 10 to 15 pN
  unstressed off-rate k0off (Bell model): 0.00076 s⁻¹

— publication PMC4316159
